Experimental data as given in US20230192818A1.

How the values were obtained:
[1] = target: Antibody 178-09_His B.1.1.7 (27080) (SARS-CoV-2), P0DTC2; assay: SPR (Carterra); conditions: remark: other sources report otherwise
[2] = target: Delta spike trimer (SARS-CoV-2), P0DTC2; conditions: remark: other sources report otherwise

B1: 3-31 (Fc fusion)
chain: EVQLVESGGGLVQPGGSLRLSCAASGSTFSINAMGWFRQAPGKEREFVAGITSSGGYTNYADSVKGRFTISADNSKNTAYLQMNSLKPEDTAVYYCAADGVPEYSDYASGPVWGQGTLVTVSS
- Kd [1]: 16.1 nM
- IC50 [2]: 3 nM
